Biological target: T1, 抗原K27-3Ub (化学合成的K27连接泛素链蛋白) (UniProt P0CG48 1-76, ubiquitin units joined through K27 linkages (K27 of one ubiquitin to the C-terminus of the next); biotinylated (biotin-K27-3Ub) in the ELISA)
T1 construct: Chemically synthesised K27-linked tri-ubiquitin provided by the Liu Lei group, Tsinghua University; also called biotin-K27-3Ub; K27泛素链
Test: SPR, Biacore 8K, antibody captured on Protein A chip, K27-3Ub as analyte, 1:1 fit

B1: 全长抗体蛋白IgG.zl1901 (antibody, V domains shown)
VH: EVQLVESGAEVKKPGASVKVSCKASGYTFTSYYMHWVRQAPGQGLEWMGIINPSGGSTSYAQKFQGRVTMTRDTSTSTVYMELSSLRSEDTAVYYCARGLRAELLHYYYGMDVWGQGTTVTVSS
VL: not shown
notes: also called 全长抗体IgG.zl1901
For B1, the Kd was 3.66 nM and the koff was 0.00234 s⁻¹.

Source: patent publication CN114195890A (UNIV SHANGHAI TRAFFIC, dated 2022)
